The record followed here is article PMC6424611 (Journal of molecular biology, 2019).

Where no end group is shown, it is not given here.

What all share (assay): SPR
Assay [1] concerns the target MBP-fused second PDZ domain of MAGI1 (human, UniProt Q96QZ7 472-554).
Assay [2] has as its target MBP-fused PDZ domain 2 of MAGI2 (human, UniProt Q86UL8 426-510).
Assay [3] deals with T1, MBP-fused PDZ domain 1 of NHERF3 (human, UniProt Q5T2W1 9-90).
T1 sequence (looked up): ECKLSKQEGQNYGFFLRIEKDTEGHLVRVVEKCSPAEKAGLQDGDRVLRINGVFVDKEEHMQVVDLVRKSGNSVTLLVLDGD

For assay [4], the target named is T2, MBP-fused PDZ domain of ARHGEF12 (human, UniProt Q9NZN5 72-151).
T2 sequence (looked up): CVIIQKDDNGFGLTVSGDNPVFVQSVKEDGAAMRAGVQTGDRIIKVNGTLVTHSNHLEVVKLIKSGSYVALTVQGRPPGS

Assay [5] concerns the target T3, MBP-fused PDZ domain 1 of PDZRN4 (human, UniProt Q6ZMN7 224-314).
T3 sequence (looked up): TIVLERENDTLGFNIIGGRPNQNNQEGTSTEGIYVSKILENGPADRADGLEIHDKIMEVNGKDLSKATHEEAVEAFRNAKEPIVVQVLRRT

Assay [6] has as its target T4, MBP-fused PDZ domain of SNTB1 (human, UniProt Q13884 112-195).
T4 sequence (looked up): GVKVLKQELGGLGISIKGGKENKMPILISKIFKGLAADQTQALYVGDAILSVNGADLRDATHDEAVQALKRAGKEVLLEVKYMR

Assay [7] addresses T5, MBP-fused PDZ domain 1 of PDZRN3 (human, UniProt Q9UPQ7 249-339).
T5 sequence (looked up): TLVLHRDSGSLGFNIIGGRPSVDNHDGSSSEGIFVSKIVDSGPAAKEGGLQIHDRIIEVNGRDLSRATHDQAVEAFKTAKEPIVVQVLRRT

Assay [8] deals with T6, MBP-fused PDZ domain of SYNJ2BP (human, UniProt P57105 13-100).
T6 sequence (looked up): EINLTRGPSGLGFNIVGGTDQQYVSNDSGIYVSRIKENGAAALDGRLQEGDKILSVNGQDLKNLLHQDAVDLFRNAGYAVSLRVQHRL

Assay [9] addresses T7, MBP-fused PDZ domain of SNTA1 (human, UniProt Q13424 87-170).
T7 sequence (looked up): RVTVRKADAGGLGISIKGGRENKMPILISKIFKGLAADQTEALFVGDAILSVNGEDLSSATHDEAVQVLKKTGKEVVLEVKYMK

Assay [10] deals with T8, MBP-fused PDZ domain of MAST2 (human, UniProt Q6P0Q8 1104-1192).
T8 sequence (looked up): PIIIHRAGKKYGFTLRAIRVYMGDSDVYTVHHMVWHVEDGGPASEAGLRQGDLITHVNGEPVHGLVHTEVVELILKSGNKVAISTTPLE

Sequence of MBP-fused second PDZ domain of MAGI1 (Q96QZ7 472-554): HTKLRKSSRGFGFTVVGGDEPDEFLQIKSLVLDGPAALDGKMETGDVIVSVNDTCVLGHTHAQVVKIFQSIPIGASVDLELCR
Sequence of MBP-fused PDZ domain 2 of MAGI2 (Q86UL8 426-510): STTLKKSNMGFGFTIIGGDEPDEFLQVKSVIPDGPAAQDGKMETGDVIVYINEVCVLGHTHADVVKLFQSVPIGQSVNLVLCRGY

B1: biotinylated HPV16 E6 peptide (peptide)
chain: RSSRTRRETQL
modifications: not fully specified (N-terminus); also: biotinylated, position not given here
Regarding B1, the Kd in assay [1] was 3.4 ± 0.8 µM; in [2] it was 2.9 ± 0.14 µM; in assay [3] it was 23 ± 3 µM; in assay [4], 10.9 ± 1.4 µM; in [5], 6 ± 1.5 µM; in assay [6], 27 ± 4 µM. Also, the Kd in assay [7] was 8.6 ± 1.6 µM; in assay [8], 33 ± 4 µM; in assay [9] it was 101 ± 40 µM; in assay [10], 2.5 ± 0.2 µM.

In general, Kd refers to the free concentration of one partner at which half of the binding sites on the other are occupied at equilibrium, for simple one-to-one binding. A low value points to tighter binding.
